Source: the nanobody polyreactivity screen of Harvey et al. (2022)

Experiment: yeast display, Sf9 membrane polyspecificity reagent, FACS + sequencing; frameworks hold sequencing errors
Method in brief: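 Galactose-induced (36–48 hours) yeast carrying a synthetic nanobody display library were exposed to 10% biotinylated, detergent-solubilized Sf9 membrane reagent at 4 °C for 1 hour. FACS followed streptavidin microbead enrichment, using low and high (top ~1%) gates for expression (anti-HA) and reagent binding (streptavidin). Colony PCR, MiSeq 2 × 250 sequencing and CDR-length filtering followed. Labels for polyreactivity reflect the gate of origin.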

Row | Sequence | polyreactivity (PSR sort gate)
1 | QVQLVESGVGLVQAGGSLRLSCAASGSTFFIYPMGLYRQAPGKERELVAAIRSGGTYYADSVKGRFTISRDNAKNTVYLQMNSLNPEDTAVYYCAARTRGFRYYYWGQGSQVTVSS | high polyreactivity
2 | QVQLVESGGGLVQAGGSLRLSCAASGSIFDSYTMGWYRQAPGKERELVATINRSGGSTYYADSVKGRFTISRDNAKNTVYLQMNSLKPEDTAVYYCANVYPYTPYSSWRSKYDYWGQGTQVTVSS | low polyreactivity
3 | QVQLVESGGGLVQAGGSLRLSCAASGRTIYYYAMGWYRQAPGKEREFVAAISWHGGSTYYADSVKGRFTISRDNAKNNVYLQMNSLKPEDTAVYYCAADIYLRGFHYDYWGQGTQVTVSS | low polyreactivity
4 | QVQLVESGGGLVQAGGSLRLSCAASGTFTRNVMGWYRQAPGKERELVAAIDNGSSTNYADSVKGRFTISRDNAKNTVYLQINSQKPEDTAVYYCANERPRSAGSAASIEQQMDYWGQGTQVTVSS | low polyreactivity
5 | QVQLVESGGGLVQAGGSLRLSCAASGSIFYYNALGWYRQAPGKERELVAVISYRSGRTSYADSVKGRFTISRDNAKNTVYLQMNSLKPEDTAVYYCNAKPAVSFSRHYYRYDYWGQGTQVTVSS | high polyreactivity
6 | QVQLVESGGGLVQAGGSLRLSCAASGSIFDFYAMGWYRQAPGKERELVAAISGSGGSTYYADSVKGRFTISRDNAKNTVYLQMNSLKPEDTAVYYCSYYYWGQGTQVTVSS | low polyreactivity
7 | QVQLVESGGGLVQAGGSLSLSCAASGSTFTYYDMGWYRQAPGKERELVAAISSSGGRTYYSDSVKGRFTISRDNAKNTVYLQMNSLKPEDTAVYYCARVVRPTDGDYWGQGTQVTVSS | high polyreactivity
8 | QVQLVETGGGLVQAGGSLRLSCASSGSIFRAYAMGWYRQAPGNERELVAYISRSGGSTYYADSVKGRFTISRDNAKNTVYLQMNSLTQEDTAFYYCAAVFYLYSNLYGEYDYWGQGTQVTVSS | low polyreactivity
9 | QVQLVESGGGLVQARGSLRLSCAASGSTFLFYAMGWYRQPPGKERELVAAISRGDSTYYAESVKGRFTISRDIAKNTVYLQMNSLKPEDTAVYYCAAGYNHLYVYRMYYWGQGTQVTVSS | high polyreactivity
10 | QVQLVESGGGLVQAGGSLRLSCAASGSTFRWYTMGWYRQAPGKERELVAAINQSGSRTYYADSVKGRFTISRDNAKNTVYLQMNSLKPEDTAGYYCNAKSYKSPHTYYYWGQGTQVTVSS | high polyreactivity
11 | QVQLVESGGGLVQAGGSLRLSCAASGSIFDSNTMGWYRQAPRKERELVAAITGTGTSTYYADSVKGRFTISRDNAKNTVYLQMNSLKPEDTAVYYCAADLEYKTWWYDYWGQGTQVTVSS | low polyreactivity
12 | QVQLVESGGGLVQAGGSLRLSCAASGIIFFKNAMGWYRQAPGKERELVAAISSTDTRTYYADSVKGRFTISRDNAKNTVYLQMNSLKPEDTAVYYCAASRRGGGLDYWGQGTQVTVSS | high polyreactivity
13 | QVHLVETGGALVQAGGSLRISCAASGLTFLDYAMGWYRQSTGKERELGAAITSGGSTNYADSVKGRFTISGDNATTTVYFQMISLKPEDTAVYYCATDLEVSAYDYWGQGNQVTVSS | low polyreactivity
14 | QVQLVESGGGLVQAGGSLRVSCAASGSTFVRNAMGGYRQAPGKETELVAFISTSGTRTHYADSVKGRFTISRDNAKNTVYFQMNSLKPEDTAVYYCNRRVYGIVTRDYWGQGTQVTVSS | high polyreactivity
15 | QVQLVESGGGLVQAGGSLRLSCDASGSIFYFNAMGWYRQAPGKERELVASITSGGSTNYADSVKGRFTISRDNAKNTVYLQMNSLKPEDTAVYYCNARKVTYPLYQDEMEYWGQGTQVTVSS | low polyreactivity
16 | QVQLVESGGGLVQAGGSLRLSCAASGFTFTYYVMGWYRQAPGKERELVAAISVSGGSTYYADSVKGRFTITRDNAKNTVYLQMNSLKPEDTAVYYCAARSPFYSYTPGYEYWGQGTQVTVSS | high polyreactivity
17 | QVQLVESGGGLVQAGGSLRLNCAASGITFGYNAMGWYRQPPGKERELVAAISSRGGSTYYADSVKGRFTISRDNAKNTVYLQMNSMKPEDTAVYYCAKDGGPGRYAWYWPVRMGYWGQGTQVTVSS | high polyreactivity
